Among the data in patent US20190359719A1 (published 2019) are Kd, Ka and IC50 values, retold here.

Positions count from the first letter of the chain named.

T1: recombinant c-Met extracellular domain (R&D Systems cat#358-MT-100/CF) (UniProt P08581 25-932)
T1 chain: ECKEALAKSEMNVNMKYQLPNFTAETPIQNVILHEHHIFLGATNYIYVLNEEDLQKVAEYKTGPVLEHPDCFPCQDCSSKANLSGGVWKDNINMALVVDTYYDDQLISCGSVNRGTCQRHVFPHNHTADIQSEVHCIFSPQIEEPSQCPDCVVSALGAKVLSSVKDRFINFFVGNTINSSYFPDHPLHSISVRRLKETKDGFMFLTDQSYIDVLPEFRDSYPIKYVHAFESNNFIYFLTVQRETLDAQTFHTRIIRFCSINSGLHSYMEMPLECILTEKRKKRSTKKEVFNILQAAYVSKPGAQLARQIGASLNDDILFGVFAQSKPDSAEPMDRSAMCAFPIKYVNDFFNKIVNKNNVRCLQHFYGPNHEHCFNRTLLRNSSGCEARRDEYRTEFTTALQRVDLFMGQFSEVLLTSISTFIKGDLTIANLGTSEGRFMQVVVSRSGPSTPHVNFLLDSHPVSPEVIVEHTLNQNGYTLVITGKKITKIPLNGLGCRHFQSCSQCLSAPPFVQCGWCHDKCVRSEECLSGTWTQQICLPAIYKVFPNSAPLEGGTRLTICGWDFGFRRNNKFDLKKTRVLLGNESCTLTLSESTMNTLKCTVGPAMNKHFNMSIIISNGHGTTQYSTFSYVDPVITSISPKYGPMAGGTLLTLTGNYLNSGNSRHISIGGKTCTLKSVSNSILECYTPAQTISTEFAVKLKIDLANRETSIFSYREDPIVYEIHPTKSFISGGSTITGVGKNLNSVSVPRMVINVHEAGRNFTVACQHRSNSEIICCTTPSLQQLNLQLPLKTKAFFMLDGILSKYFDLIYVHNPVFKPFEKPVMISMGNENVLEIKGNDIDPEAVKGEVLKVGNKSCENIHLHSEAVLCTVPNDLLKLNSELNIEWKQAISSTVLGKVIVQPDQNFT

B1: A1 anti-c-Met antibody in IgG format (antibody, V domains shown)
VH: QVQLQESGPGLVKPSQTLSLTCTVSGGSISSGGYYWSWIRQHPGKGLEWIGEINHSGSTNYNPSLKSRVTISVDTSKNQFSLKLSSVTAADTAVYYCARGRDGYDFDPWGQGTLVTVSS
VL: LPVLTQPASVSGSPGQSITISCTGTSSDVGGYNYVSWYQQHPGKAPKLMIYDVSDRPSGVSTRFSGSKSGNTASLTISGLQAEDEADYYCSSYRSSSALVVFGGGTKLTVL
B2: E1 anti-c-Met antibody in IgG format (antibody, V domains shown)
VH: QVQLVQSGAEVKKPGASVKVSCKTSGYTFSGDYMHWVRQAPGQGLEWMGWINPNSGGTNYAQKFQGRVTMTRDTSISTAYMELSRLRSDDTAVYYCAREPGRDYYYYDGMDVWGQGTTVTVSS
VL: QSVVTQPPSVSGAPGQRVTISCTGSSSNIGAGYDVHWYQQLPGTVPKLLIYGNSNRPSGVPDRFSGSKSGTSASLAITGLQAEDEADYYCQSYDSSLSAYVFGTGTKVTVL
B3: D6 anti-c-Met antibody in IgG format (antibody, V domains shown)
VH: QVQLQQWGAGLLKPSETLSLTCAVYGGSFSGYYWSWIRQPPGKGLEWIGEINHSGSTNYNPSLKSRVTISVDTSKNQFSLKLSSVTAADTAVYYCARGRDGYDFDPWGQGTLVTVSS
VL: QSVLTQPPSASGSPGQSVTISCTGTSSDVGGYNYVSWYQQHPGKAPKLMIYEVSKRPSGVPDRFSGSKSGNTASLTVSGLQAEDEADYYCSSYAGSNNLVVFGGGTQLTVL
B4: A2 (antibody, V domains shown)
VH: QVQLQESGPGLVKPSGTLSLTCAVSGGSISRSNWWSWVRQPPGKGLEWIGEVYHSGSTNYNPSLKSRVTISVDKSKNQFSLKVNSVTAADTAVYYCARDSDGGYYFDYWGQGTLVTVSS
VL: B1 VL with N33K, M49L, S54T, T62N, K68Q, A82T, R94T, S95D, S96N, S97G
B5: El-A11 (E1 derived anti-c-Met antibody) (antibody, V domains shown)
VH: B2 VH with T24A, Y27F, M34I, G101A, M110L
VL: B2 VL with T23L, Y33H, V45A, P57I, D94S, V101L
B6: El-B19 (E1 derived anti-c-Met antibody) (antibody, V domains shown)
VH: B2 VH with T24A, Y27F, M34I, M110L
VL: B2 VL with T23L, S26A, Y33H, V45A, D94S, Y100V, V101L
B7: El-A18 (E1 derived anti-c-Met antibody) (antibody, V domains shown)
VH: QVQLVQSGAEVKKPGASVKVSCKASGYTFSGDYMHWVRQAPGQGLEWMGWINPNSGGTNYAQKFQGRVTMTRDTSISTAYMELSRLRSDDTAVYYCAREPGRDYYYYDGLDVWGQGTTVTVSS
VL: B2 VL with T23I, S26A, Y33H, V45A, D94S
B8: El-A10 (E1 derived anti-c-Met antibody) (antibody, V domains shown)
VH: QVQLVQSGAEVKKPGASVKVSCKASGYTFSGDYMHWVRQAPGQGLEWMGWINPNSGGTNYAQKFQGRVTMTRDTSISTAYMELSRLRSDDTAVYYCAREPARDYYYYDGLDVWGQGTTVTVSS
VL: B2 VL with T23L, S26A, Y33H, V45A, D94S
B9: El-A14 (E1 derived anti-c-Met antibody) (antibody, V domains shown)
VH: B2 VH with T24A, M34I, G101A, M110L
VL: B2 VL with T23I, Y33H, V45A, D94S
B10: El-B11 (E1 derived anti-c-Met antibody) (antibody, V domains shown)
VH: B2 VH with T24A, M34I, G101A, M110L
VL: B2 VL with T23I, V45A, P57I, D94S, Y100V, V101L
B11: El-BR1 (E1 derived anti-c-Met antibody) (antibody, V domains shown)
VH: B2 VH with T24A, Y27S, M34L, G101A, M110L
VL: B2 VL with T23L, S26A, V45A, D94S, Y100V, V101L
B12: F3 anti-c-Met antibody in IgG format (antibody, V domains shown)
VH: QVQLVESGPGLVKPSGTLSLTCAVSGGSISSSNWWSWVRQPPGKGLEWIGEIYHSGSTNYNPSLKSRVTISVDKSKNQFSLKLSSVTAADTAVYYCARSAYGDYFLDYWGQGTLVTVSS
VL: B1 VL with L1Q, P2S, M49L, S54D, D55S, T62N, Y93F, R94T, A98T, L108V
B13: B12 anti-c-Met antibody in IgG format (antibody, V domains shown)
VH: QVQLVESGAEVKKPGASVKVSCKASGYTFTGYYMHWVRQAPGQGLEWMGWINPNSGNTGYAQKFQGRVTMTRNTSISTAYMELSSLRSEDTAVYYCARRGTTVSFDYWGQGTTVTVSS
VL: QAVLTQPPSVSGSPGQSITISCTGTSSDVGTFNLVSWYQQHPGKAPKLIIYEVSKRPSDVSPRYSGSKSGTTASLTISVLQTEDEADYYCCSYTTSSSYVFGIGTKVTVL
B14: A8 (antibody, V domains shown)
VH: QITLKESGAEVKKPGSSVKVSCKASGGTFSSYGISWVRQAPGQGLEWMGGIIPMFGTANYAQKFQGRVTITADESTSTAYMELSSLRSEDTAVYYCARDEVAPDYYGSGPSYGMDVWGQGTMVTVSS
VL: SYELMQPASVSGSPGQSITISCTGTSSDVGGYDHVSWYQQHPGKAPKLMIYAVRNRPSGVPDRFSGSKSGNTASLTISGLQAEDEADYYCSSYTSSLTYVFGTGTKVTVL
B15: H8 anti-c-Met antibody in IgG format (antibody, V domains shown)
VH: EVQLVQSGAEVKKPGASVKVSCKASGYTFSSYYMHWVRQAPGQGLEWMGWINPNSGNTGYAQKFQGRVTMTRNTSISTAYMELSSLRSEDTAVYYCARRGTTVSFDYWGQGTLVTVS
VL: QLVLTQSPSVSVAPGQRVTISCSGSNSNIGNNYVSWYHHLPGTAPKLLIYDNNKRPSGIPDRFSGSKSGTSATLGITGLQPGDEAHYYCGTWDSTLSAGVFGGGTKLTVL
B16: A1-4 anti-c-Met antibody (antibody, V domains shown)
VH: B1 VH with I53S, N54S, D105Y, P108A
VL: B1 VL with N33P, D52V, K107Q
B17: A1-32 anti-c-Met antibody (antibody, V domains shown)
VH: B1 VH with I53S, N54T, K66D, D105Y, F106L, P108Q
VL: B1 VL with S27F, N33P, Y93F, S97A
B18: A1-8 (antibody, V domains shown)
VH: B1 VH with N54S, K66E, F106L, P108R
VL: B1 VL with N33P, D52R, S97A
B19: A1-2 anti-c-Met antibody (antibody, V domains shown)
VH: B1 VH with I53S, N54T, P108A
VL: B1 VL with S27F, Y93F
B20: A1-24 anti-c-Met antibody (antibody, V domains shown)
VH: B1 VH with I53S, N54T, K66E, G103S, P108A
VL: B1 VL with S27F, Y93F, S97A
B21: A1-9 anti-c-Met antibody (antibody, V domains shown)
VH: B1 VH with N54S, D105Y, F106L, P108Q
VL: B1 VL with D52N, Y93F
B22: A1-6 anti-c-Met antibody (antibody, V domains shown)
VH: B1 VH with N54T, F106I, P108A
VL: B1 VL with S27W, N33P, S96V

The target in the first assay is T1, recombinant c-Met extracellular domain …. Description: Biacore SPR. (In SPR one partner is held on a chip, and binding of the other changes the refractive index at the surface.)
Usually Kd stands for the free concentration of one partner at which half of the binding sites on the other are occupied at equilibrium, for simple one-to-one binding. B1: the Kd worked out at 1.98 nM.
On the same count and under the same terms, the same measure for B2: 18.6 nM.

For a further assay the target is unchanged. Description: Octet Red (BLI).
As to B3, the Kd was 1.9 nM.
Same read-out and setting: under B4 stands 2.2 nM.

Another assay shares this target. As to the kind of experiment: Biacore SPR. This is another data set of the same source.
On to B1, for which the Ka was determined as 5.3e+08 M⁻¹.
As for B2, the Ka is 5.37e+07 M⁻¹.

A further assay has the same target. As to the kind of experiment: ELISA, blocking of HGF binding to c-Met. For orientation: ELISA stands for enzyme-linked immunosorbent assay.
As usually defined, the IC50 is the point on the concentration scale where inhibition reaches its midpoint. As for B2, the IC50 came to 3.18 nM.
Same read-out and setting: under B5 stands 2.26 nM; under B6, 2.63 nM; under B7, 2.69 nM.
Same read-out and setting: under B8 stands 2.61 nM; under B9, 2.31 nM; under B10, 2.98 nM.
Same read-out and setting: the same measure for B11: 3.11 nM.

Another assay shares this target. Description: Octet Red (BLI). The source holds these as a separate data set.
Turning to B12, the Kd turned out to be 0.7 nM.
Still for that read-out and setting: under B13 stands 0.15 nM.

Another assay has the same target. Description: Octet Red (BLI). This is another data set of the same source. Background: In BLI a coated tip is dipped into the sample, and binding shifts an interference pattern.
In the case of B1, the Kd amounted to 0.8 nM.
Still for that read-out and setting: under B14 stands 1.5 nM.

A further assay shares this target. As to the kind of experiment: Octet Red (BLI). This is another data set of the same source.
In the case of B15, the Kd turned out to be 0.8 nM.
Consider B2, for which the Kd is 4.5 nM.

A further assay has the same target. As to the kind of experiment: ELISA, blocking of HGF binding to c-Met. This is another data set of the same source.
For the molecule B16, the IC50 came out at 1.44 nM.
As for B17, the IC50 was 0.91 nM.
Still for that read-out and setting: the same measure for B18: 1.14 nM; for B19: 1.22 nM; for B20: 1.52 nM.
Take B21: the IC50 worked out at 1.72 nM.
On the same count and under the same terms, under B22 stands 1.34 nM; under B1, 1.73 nM.
